This is an account of results in PMC9719539 (2022).

B1: integrin αVβ3 on intact cells (receptor)
chain 1: FNLDVDSPAEYSGPEGSYFGFAVDFFVPSASSRMFLLVGAPKANTTQPGIVEGGQVLKCDWSSTRRCQPIEFDATGNRDYAKDDPLEFKSHQWFGASVRSKQDKILACAPLYHWRTEMKQEREPVGTCFLQDGTKTVEYAPCRSQDIDADGQGFCQGGFSIDFTKADRVLLGGPGSFYWQGQLISDQVAEIVSKYDPNVYSIKYNNQLATRTAQAIFDDSYLGYSVAVGDFNGDGIDDFVSGVPRAARTLGMVYIYDGKNMSSLYNFTGEQMAAYFGFSVAATDINGDDYADVFIGAPLFMDRGSDGKLQEVGQVSVSLQRASGDFQTTKLNGFEVFARFGSAIAPLGDLDQDGFNDIAIAAPYGGEDKKGIVYIFNGRSTGLNAVPSQILEGQWAARSMPPSFGYSMKGATDIDKNGYPDLIVGAFGVDRAILYRARPVITVNAGLEVYPSILNQDNKTCSLPGTALKVSCFNVRFCLKADGKGVLPRKLNFQVELLLDKLKQKGAIRRALFLYSRSPSHSKNMTISRGGLMQCEELIAYLRDESEFRDKLTPITIFMEYRLDYRTAADTTGLQPILNQFTPANISRQAHILLDCGEDNVCKPKLEVSVDSDQKKIYIGDDNPLTLIVKAQNQGEGAYEAELIVSIPLQADFIGVVRNNEALARLSCAFKTENQTRQVVCDLGNPMKAGTQLLAGLRFSVHQQSEMDTSVKFDLQIQSSNLFDKVSPVVSHKVDLAVLAAVEIRGVSSPDHVFLPIPNWEHKENPETEEDVGPVVQHIYELRNNGPSSFSKAMLHLQWPYKYNNNTLLYILHYDIDGPMNCTSDMEINPLRIKISSLQTTEKNDTVAGQGERDHLITKRDLALSEGDIHTLGCGVAQCLKIVCQVGRLDRGKSAILYVKSLLWTETFMNKENQNHSYSLKSSASFNVIEFPYKNLPIEDITNSTLVTTNVTWGIQPAPMPVPVWVIILAVLAGLLLLAVLVFVMYRMGFFKRVRPPQEEQEREQLQPHENGEGNSET
chain 2: GPNICTTRGVSSCQQCLAVSPMCAWCSDEALPLGSPRCDLKENLLKDNCAPESIEFPVSEARVLEDRPLSDKGSGDSSQVTQVSPQRIALRLRPDDSKNFSIQVRQVEDYPVDIYYLMDLSYSMKDDLWSIQNLGTKLATQMRKLTSNLRIGFGAFVDKPVSPYMYISPPEALENPCYDMKTTCLPMFGYKHVLTLTDQVTRFNEEVKKQSVSRNRDAPEGGFDAIMQATVCDEKIGWRNDASHLLVFTTDAKTHIALDGRLAGIVQPNDGQCHVGSDNHYSASTTMDYPSLGLMTEKLSQKNINLIFAVTENVVNLYQNYSELIPGTTVGVLSMDSSNVLQLIVDAYGKIRSKVELEVRDLPEELSLSFNATCLNNEVIPGLKSCMGLKIGDTVSFSIEAKVRGCPQEKEKSFTIKPVGFKDSLIVQVTFDCDCACQAQAEPNSHRCNNGNGTFECGVCRCGPGWLGSQCECSEEDYRPSQQDECSPREGQPVCSQRGECLCGQCVCHSSDFGKITGKYCECDDFSCVRYKGEMCSGHGQCSCGDCLCDSDWTGYYCNCTTRTDTCMSSNGLLCSGRGKCECGSCVCIQPGSYGDTCEKCPTCPDACTFKKECVECKKFDRGALHDENTCNRYCRDEIESVKELKDTGKDAVNCTYKNEDDCVVRFQYYEDSSGKSILYVVEEPECPKGPDILVVLLSVMGAILLIGLAALLIWKLLITIHDRKEFAKFEEERARAKWDTANNPLYKEATSTFTNITYRGT
B2: integrin αVβ5 on intact cells (receptor)
chain 1: B1 chain 1
chain 2: GLNICTSGSATSCEECLLIHPKCAWCSKEDFGSPRSITSRCDLRANLVKNGCGGEIESPASSFHVLRSLPLSSKGSGSAGWDVIQMTPQEIAVNLRPGDKTTFQLQVRQVEDYPVDLYYLMDLSLSMKDDLDNIRSLGTKLAEEMRKLTSNFRLGFGSFVDKDISPFSYTAPRYQTNPCIGYKLFPNCVPSFGFRHLLPLTDRVDSFNEEVRKQRVSRNRDAPEGGFDAVLQAAVCKEKIGWRKDALHLLVFTTDDVPHIALDGKLGGLVQPHDGQCHLNEANEYTASNQMDYPSLALLGEKLAENNINLIFAVTKNHYMLYKNFTALIPGTTVEILDGDSKNIIQLIINAYNSIRSKVELSVWDQPEDLNLFFTATCQDGVSYPGQRKCEGLKIGDTASFEVSLEARSCPSRHTEHVFALRPVGFRDSLEVGVTYNCTCGCSVGLEPNSARCNGSGTYVCGLCECSPGYLGTRCECQDGENQSVYQNLCREAEGKPLCSGRGDCSCNQCSCFESEFGKIYGPFCECDNFSCARNKGVLCSGHGECHCGECKCHAGYIGDNCNCSTDISTCRGRDGQICSERGHCLCGQCQCTEPGAFGEMCEKCPTCPDACSTKRDCVECLLLHSGKPDNQTCHSLCRDEVITWVDTIVKDDQEAVLCFYKTAKDCVMMFTYVELPSGKSNLTVLREPECGNTPNAMTILLAVVGSILLVGLALLAIWKLLVTIHDRREFAKFQSERSRARYEMASNPLYRKPISTHTVDFTFNKFNKSYNGTVD
B3: cyclic-ACRGDGWCGK (peptide)
peptide: ACRGDGWCGK
modifications: disulfide 2-8 (inferred)
B4: Biogen-αVβ1.5 Fab (Fab, V domains shown)
VH: EVQLVESGGGVVQPGRSLRLSCAASGFTFKYYGMHWVRQAPGKGLEWVASIWYDGSNKKYADSVKGRFTISRDNSKNTLYLQMNSLRAEDTAVYYCARGGPTRGDGTRVYYYGMDVWGQGTTVTVSS
VL: EIVMTQSPATLSVSPGERATLSCRASQSVSSNLAWYQQKPGQAPRLLIYSASTRATGIPARFSGSGSGTEFTLTISSLQSEDFAVYYCQQYYHHPFTFGGGTKVEIK
B5: cyclo[Arg-Gly-Asp-D-Phe-Lys] (cRGDfK) (peptide)
peptide: cyclo(RGD[dF]K)

Test [1] addresses IPI-αVβ5.9. The experiment in a line: FACS; L15 medium. On the technique in general: Flow cytometry measures light scatter and fluorescence of single cells or particles in a stream.
The target in test [2] is IPI-αVβ3.13. The experiment in a line: FACS; L15 medium.
The target of test [3] is IPI-αVβ5.9. The experiment in a line: FACS; L15 + 1 mM Mn2+.
In test [4] the target is IPI-αVβ3.13. The test can be described thus: FACS; L15 + 1 mM Mn2+.
Test [5] concerns the target T1, integrin α5β1 on intact cells (human, UniProt P08648 42-1049; P05556 21-798). The experiment in a line: FACS.
Test [6] addresses B1. The experiment in a line: FACS.
Test [7] concerns the target integrin αVβ1 on intact cells (human, UniProt P06756 31-1048; P05556 21-798). The test can be described thus: FACS.
Test [8] addresses T1, integrin α5β1 on intact cells. The experiment in a line: FACS. This is another data set of the same source.

Where two headings read alike, the source gives them in different places. Positions of bridges follow the written chain, without caps; N, C: chain ends. Non-standard residues stand in square brackets, D forms with d. No end group written: not given here.

T1 sequence (P08648 42-1049, chain 1 of 2): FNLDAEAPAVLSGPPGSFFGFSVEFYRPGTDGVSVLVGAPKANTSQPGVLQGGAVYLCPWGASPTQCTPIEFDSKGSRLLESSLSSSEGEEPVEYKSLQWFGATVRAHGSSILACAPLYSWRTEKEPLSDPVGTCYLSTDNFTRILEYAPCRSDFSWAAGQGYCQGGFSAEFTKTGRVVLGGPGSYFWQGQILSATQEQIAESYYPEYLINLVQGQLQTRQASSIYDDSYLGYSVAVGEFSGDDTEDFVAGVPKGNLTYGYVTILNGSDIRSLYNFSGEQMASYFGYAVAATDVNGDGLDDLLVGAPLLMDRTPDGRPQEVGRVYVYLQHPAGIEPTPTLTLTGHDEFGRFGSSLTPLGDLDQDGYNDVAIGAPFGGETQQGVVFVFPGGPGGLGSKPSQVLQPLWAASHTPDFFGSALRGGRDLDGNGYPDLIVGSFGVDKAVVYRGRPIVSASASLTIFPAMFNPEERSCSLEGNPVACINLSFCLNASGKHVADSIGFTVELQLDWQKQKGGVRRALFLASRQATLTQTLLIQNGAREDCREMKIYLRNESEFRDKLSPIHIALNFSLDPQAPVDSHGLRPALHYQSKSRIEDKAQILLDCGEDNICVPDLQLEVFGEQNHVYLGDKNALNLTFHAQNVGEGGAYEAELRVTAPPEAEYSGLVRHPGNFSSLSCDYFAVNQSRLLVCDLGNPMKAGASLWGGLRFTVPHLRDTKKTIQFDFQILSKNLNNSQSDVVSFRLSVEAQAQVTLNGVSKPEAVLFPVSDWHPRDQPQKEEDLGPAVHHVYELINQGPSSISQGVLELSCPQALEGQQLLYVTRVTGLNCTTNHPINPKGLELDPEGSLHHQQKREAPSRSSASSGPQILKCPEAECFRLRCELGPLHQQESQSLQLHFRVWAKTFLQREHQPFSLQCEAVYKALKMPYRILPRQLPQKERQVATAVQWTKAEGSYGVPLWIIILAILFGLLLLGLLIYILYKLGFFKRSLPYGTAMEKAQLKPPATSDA
T1 sequence (P05556 21-798, chain 2 of 2): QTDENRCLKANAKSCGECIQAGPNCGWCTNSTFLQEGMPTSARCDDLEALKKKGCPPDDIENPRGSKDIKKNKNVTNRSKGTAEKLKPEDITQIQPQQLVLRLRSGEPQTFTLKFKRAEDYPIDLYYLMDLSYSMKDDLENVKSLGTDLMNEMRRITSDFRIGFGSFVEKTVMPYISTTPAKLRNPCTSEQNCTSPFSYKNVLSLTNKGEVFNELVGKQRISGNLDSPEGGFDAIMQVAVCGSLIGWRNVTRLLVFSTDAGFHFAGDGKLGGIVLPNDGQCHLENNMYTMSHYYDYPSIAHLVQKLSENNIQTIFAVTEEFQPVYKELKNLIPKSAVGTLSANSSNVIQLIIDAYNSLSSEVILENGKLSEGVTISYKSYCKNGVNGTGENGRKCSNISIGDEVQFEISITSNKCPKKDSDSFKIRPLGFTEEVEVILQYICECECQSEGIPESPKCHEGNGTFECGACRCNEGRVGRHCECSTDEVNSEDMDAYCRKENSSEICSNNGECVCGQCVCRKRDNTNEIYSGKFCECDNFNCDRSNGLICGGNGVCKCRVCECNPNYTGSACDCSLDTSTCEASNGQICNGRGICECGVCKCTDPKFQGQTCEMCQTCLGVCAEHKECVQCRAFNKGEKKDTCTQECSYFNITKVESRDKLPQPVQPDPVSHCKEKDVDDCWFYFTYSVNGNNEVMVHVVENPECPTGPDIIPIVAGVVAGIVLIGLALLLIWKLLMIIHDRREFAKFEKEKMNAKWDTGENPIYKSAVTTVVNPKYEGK
Chain of integrin αVβ1 on intact cells (P05556 21-798, one chain of several): as the sequence (P05556 21-798, chain 2 of 2) above

Broadly, the Kd is a measure of binding affinity in units of concentration. B1: the Kd in test [1] turned out to be 10000 nM; in test [2] it was 56 nM; in test [3] it was 16000 nM; in test [4] it was 23 nM.

Regarding B2, the Kd came out at 43 nM in test [1], 24 nM in test [3] and 50000 nM in test [4].

Consider B3, for which the Kd in test [5] stood at 3700 nM.

Regarding B4, the Kd in test [6] turned out to be 78000 nM; in test [7], 24 nM.

B5: the Kd in test [8] came out at 86 nM.
